For one protein, Km results are on record in paper PMC7614388, “Diversification in the inositol tris/tetrakisphosphate kinase (ITPK) family: crystal structure and enzymology of the outlier AtITPK4” (Biochemical Journal, 2023).

Substrate in the series: Nc1ncnc2c1ncn2[C@@H]1O[C@H](COP(=O)(O)OP(=O)(O)OP(=O)(O)O)[C@@H](O)[C@H]1O
In words: HPLC kinase assay, Michaelis-Menten fit. Type of series: biochemical, Arabidopsis thaliana. Particulars: 1 mM Ins(1,4,6)P3, ATP 0-5 mM, 6 mM MgCl2, 20 mM HEPES pH 7.3, 25 °C, 3 µM enzyme.

B1: AtITPK4 (Arabidopsis thaliana) (protein)
chain: MKGVLLDESVLFSPESEDSSPSLRESVPSLLRLLRYSMIRTGISYGLDLPENKVDLLRKTAAEYSINCLPLETSLTSVTFGDTLKAWYSDGSILYVASSRKEEILRELSPSQLVVLLDVEGDSLEDPNIIHIHSLEELPMTICCINKKAMGDGAAIVAYIMKPSRVEDFAKRGALPMYPTSCGLIFLPLMFEFPLASQLKHADIIFHKATDEILSIELNCSDSKSSVAVTFSTGMEKLKKYMEDQNACAIVDPIRNIYPVVDRLKMQHILLGLEGLGAAGRKIRGACFLKIDSYDEPDLAQNLSRAGLSLPCIVKPQVACGVADAHSMAIVFRVEDFKNLNTPVPAIIQEYVDHSSRIFKFYVLGETIFHAVKKSIPSSSSLRKSAEENGLKPILFDSLKSLPVDSANQNPVSEIDLELVTEAATWLRKKLDLTIFGFDVVIQEGTGDHVIVDLNYLPSFKEVPDNIAVPAFWEAIRNRFDQHVQEKH
notes: full-length; pOPINE, non-cleavable C-terminal 6xHis tag kept; Ni-NTA purified; HAD-like domain 1-150, ATP-grasp kinase domain from 151; no evidence of homo-oligomers
Turning to B1, the Km turned out to be 52 ± 7 µM.

Broadly, the Km is the substrate concentration at which the rate is half of its maximum.
